Experimental data taken from US7709240B2, “AMP deaminase originating streptomyces and utilization thereof” (Amano Enzyme Inc., priority 2004, dated 2010).

What was measured:
Format in all cases: biochemical
[1] = IMP conversion reaction (HPLC); settings: 1.1% AMP solution, pH 7.0, 50° C., 4 hours
Procedure: IMP conversion rate by HPLC of AMP deaminase produced by Aspergillus melleus and Streptomyces murinus was examined. Specifically, by using 1/15M phosphate buffer solution (pH 7.0), 1.1% AMP solution was prepared. To 5 ml of 1.1% AMP solution, 0.5 ml of enzyme solution was added and reacted at 50° C. for 4 hours. Thereafter, heat treatment at 100° C. was carried out for 10 minutes, filter filtration (0.45 μm) was carried out, and HPLC analysis was carried out.

[2] = Enzyme kinetics (Km, Vmax)
Substrate specificity = experiment: Substrate specificity

B1: AMP deaminase derived from Streptomyces murinus: thermostable AMP deaminase enzyme produced by Streptomyces murinus IFO14802; amino acid sequence SEQ ID NO: 1 (protein, listed as Streptomyces murinus)
chain: APPPRQATAAEARTDAYLRSVKDRPAALRAFFRQLPKGGDLHNHLSGAVNTDYLIELAAEDGLCIDATMTAVPSPCGPGTRPAADARTDRAFHDAIVRAWSMQDFPPDENGHDHFFDTFGKFGEVTWRHRGKLLAQVADTVVANNQSYLETMVTPASDGAKQLADQVGWDADLTALHRKLAAGGKLDKLVADARKEADDGDAEFRATEHCGTAKARPACGLTVRWISQASRGSSPVRVFTQLDLGMRLAEADSRFVAVNLVQPEDWDSSLENYSLQMRMVGYLRTVYPKAHVTLHAGELWPGLVKPEALKFHIAEAVDIAHTQRVGHGVDLVHEDNWQRTARTMAARQIAVEVPFSSNAQILGVKGAEHPFTTYRRYGVPVVLATDDPGVSRIDISHEYQYAAATYGLGYPELKDLARASLQYAFLPGASLWQGNPTAQGYHPVAACRAERPGQPVHSAACRRLLDGSARARLEWRQEAAFAAFERAHARG
[1]
  IMP conversion rate compared with AMP deaminase produced by Aspergillus melleus: the same level
  ratio of the side product (hypoxanthine) compared with Aspergillus melleus: smaller
[2]
  Km: 950 µM
  Vmax: 3.5e+07 µmol/min/mg
Substrate specificity
  action on substrate 5′-UMP: did not act on
